This note sets out measurements from patent CN116284353A (HUASONG SHANGHAI BIOMEDICAL TECH CO LTD, dated 2023).

This assay deals with T1, EV A71 VLP (Enterovirus A71, UniProt Q66478 2-862).
T1 construct: Multi-subunit particle
T1 sequence: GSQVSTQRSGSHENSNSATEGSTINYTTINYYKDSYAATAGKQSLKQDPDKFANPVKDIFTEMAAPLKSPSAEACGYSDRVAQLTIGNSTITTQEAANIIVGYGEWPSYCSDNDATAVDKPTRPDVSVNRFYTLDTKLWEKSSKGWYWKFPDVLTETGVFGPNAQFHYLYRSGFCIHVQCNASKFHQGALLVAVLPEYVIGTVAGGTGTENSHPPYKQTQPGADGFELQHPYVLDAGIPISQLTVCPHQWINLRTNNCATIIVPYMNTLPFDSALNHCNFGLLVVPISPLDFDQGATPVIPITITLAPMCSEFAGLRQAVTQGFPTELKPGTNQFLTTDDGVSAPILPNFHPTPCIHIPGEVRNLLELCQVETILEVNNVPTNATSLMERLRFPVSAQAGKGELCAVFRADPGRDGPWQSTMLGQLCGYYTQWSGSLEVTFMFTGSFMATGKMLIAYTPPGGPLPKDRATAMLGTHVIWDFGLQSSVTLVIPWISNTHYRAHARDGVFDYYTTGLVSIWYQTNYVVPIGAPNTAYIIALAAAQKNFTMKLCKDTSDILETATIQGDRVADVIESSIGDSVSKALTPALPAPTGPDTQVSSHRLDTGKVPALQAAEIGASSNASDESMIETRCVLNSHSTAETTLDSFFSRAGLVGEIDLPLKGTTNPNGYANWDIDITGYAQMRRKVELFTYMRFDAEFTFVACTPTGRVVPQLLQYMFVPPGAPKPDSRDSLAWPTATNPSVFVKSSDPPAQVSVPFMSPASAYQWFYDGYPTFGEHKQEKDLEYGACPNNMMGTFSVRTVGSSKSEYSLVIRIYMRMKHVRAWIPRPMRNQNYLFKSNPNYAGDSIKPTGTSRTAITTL
The assay is described as follows: Western blot on denatured VLP.

B1: 单克隆抗体3C4 (antibody, mouse IgG1, kappa, V domains shown)
VH: QVTLKESGPGILQPSQTLSLTCSFSGFSLSTSGMGVSWIRQPSGKGLEWLAHIWWDDDKRYNPALKSRLTISKDTSNNQVFLRIASVDTADTATYYCVRIGGYFWGQGTSVTVSS
VL: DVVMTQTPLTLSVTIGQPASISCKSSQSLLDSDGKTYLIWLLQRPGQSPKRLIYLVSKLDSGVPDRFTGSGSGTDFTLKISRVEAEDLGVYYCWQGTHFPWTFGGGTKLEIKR
notes: Mouse IgG1 kappa; also called 3C4单抗; 杂交瘤细胞株3C4
For the molecule B1, the binding result is recorded as “no binding (tested: 1μg/mL)”.
